# Test results as given in publication doi:10.1101/2022.03.17.484791.
# Target: PY-NLS mutants (R206W/Q/G, P209L, and Y210C)
# Experiment: co-IP
substance,measurement,value
"Kapβ2, endogenous in HEK293T cells (from UniProt Q92973 1-898) (receptor)",reduction in Kapβ2 interaction against WT,50 to 75%
